Experiment [1] has as its target T1, P62 (huANGPTL7-his) (human, UniProt O43827 27-346).
T1 construct: not shown: C-terminal short linker and His tag
T1 chain: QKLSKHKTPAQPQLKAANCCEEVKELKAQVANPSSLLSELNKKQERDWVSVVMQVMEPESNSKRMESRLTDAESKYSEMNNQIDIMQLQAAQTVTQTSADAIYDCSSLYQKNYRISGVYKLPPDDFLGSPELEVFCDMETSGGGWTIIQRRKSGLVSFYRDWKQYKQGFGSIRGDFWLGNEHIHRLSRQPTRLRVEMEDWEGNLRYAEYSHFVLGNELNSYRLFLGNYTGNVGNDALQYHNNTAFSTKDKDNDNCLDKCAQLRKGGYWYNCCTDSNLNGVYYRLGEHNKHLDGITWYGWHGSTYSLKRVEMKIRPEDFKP
The experiment is described as follows: BLI Octet HTX; IgG on AHC sensor; P62 0.343-250 nM; global 1:1 fit. The procedure:
(§1) Experiments were also conducted to determine the reactivity and dissociation constants (KD) of anti-ANGPTL7 antibodies with the human ANGPTL7-his protein. Binding experiments were performed on Octet HTX (ForteBio) in 1×PBS, pH 7.4, 0.1 mg/mi BSA, 0.05% Sodium Azide, and 0.02% Tween 20. To measure monovalent binding kinetics, antibodies at a concentration of 50 nM were loaded on pre-hydrated AHC biosensors for 5 min. The loaded sensors were dipped into monovalent P62 (huANGPTL7-his) at a range of concentration from 0.343-250 nM (a serial 3-fold dilution) for 5 min association, followed by 10 min dissociation.
(In general: Biolayer interferometry detects binding as a change in optical thickness at a sensor tip.)

In experiment [2] the target is T2, muANGPTL7-his (R&D Systems) (mouse, UniProt Q8R1Q3 22-337, limits assumed).
T2 construct: Bought protein; also called mouse ANGPTL7 protein
T2 sequence (looked up): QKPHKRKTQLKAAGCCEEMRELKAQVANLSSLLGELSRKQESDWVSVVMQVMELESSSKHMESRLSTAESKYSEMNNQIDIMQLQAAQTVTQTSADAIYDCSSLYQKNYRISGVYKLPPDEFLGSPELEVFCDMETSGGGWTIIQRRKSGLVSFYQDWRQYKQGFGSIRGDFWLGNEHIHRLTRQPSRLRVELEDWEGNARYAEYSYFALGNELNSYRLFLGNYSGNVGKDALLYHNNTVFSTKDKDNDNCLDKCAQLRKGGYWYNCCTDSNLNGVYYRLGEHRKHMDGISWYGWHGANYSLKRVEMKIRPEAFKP
Kind of experiment: BLI Octet HTX; IgG on AHC sensor; muANGPTL7-his at 200 nM; 1:1 fit. An outline of the steps: (§2)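 Anti-ANGPTL7 antibodies (50 nM) were loaded on AHC biosensors in PBS pH 7.4 with BSA, azide and Tween 20. Sensors were dipped in monovalent mouse ANGPTL7-his (200 nM) for 5 min association and 10 min dissociation. KD came from a 1:1 fit, and responses were taken at the end of association.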

Another experiment has as its target T3, P66 (rabbit ANGPTL7-his) (rabbit, UniProt G1T4P1 27-344).
T3 construct: mature; also called rabbit ANGPTL7 protein
T3 sequence: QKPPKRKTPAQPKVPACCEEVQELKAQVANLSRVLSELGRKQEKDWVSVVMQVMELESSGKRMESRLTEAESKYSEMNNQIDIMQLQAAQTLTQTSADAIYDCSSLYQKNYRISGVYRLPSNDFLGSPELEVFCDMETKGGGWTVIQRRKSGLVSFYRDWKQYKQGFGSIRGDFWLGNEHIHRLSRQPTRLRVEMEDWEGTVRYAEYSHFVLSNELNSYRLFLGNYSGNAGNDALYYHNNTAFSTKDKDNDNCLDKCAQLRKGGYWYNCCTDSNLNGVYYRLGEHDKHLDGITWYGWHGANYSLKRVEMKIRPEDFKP
Kind of experiment: BLI Octet HTX; IgG on AHC sensor; P66 at 200 nM. The procedure:
Experiments were also conducted to determine the reactivity and dissociation constants ([…]) of anti-ANGPTL7 antibodies with the rabbit ANGPTL7 protein. Binding experiments were performed on Octet HTX (ForteBio) in Rx PBS, pH 7.4, 0.1 mg/mi BSA, 0.05% Sodium Azide, and 0.02% Tween 20. Antibodies at a concentration of 50 nM were loaded on pre-hydrated AHC biosensors for 5 min. The loaded sensors were dipped into monovalent P66 (rabbit ANGPTL7-his) at a concentration of 200 nM for 5 min of association, followed by 10 min of dissociation. […] Responses (nm) at the end of association were also determined (Table 6).

For experiment [3], the target named is T1, P62 (huANGPTL7-his). Kind of experiment: BLI Octet HTX; IgG on AHC sensor; P62 0.343-250 nM. The procedure: as §1
The target in experiment [4] is T4, Pext-01 (huANGTPL7-FLAG multimer) (human, UniProt O43827 27-346).
T4 construct: also called PExt-1; human wild type ANGPTL7 multimer; not shown: FLAG tag
T4 sequence: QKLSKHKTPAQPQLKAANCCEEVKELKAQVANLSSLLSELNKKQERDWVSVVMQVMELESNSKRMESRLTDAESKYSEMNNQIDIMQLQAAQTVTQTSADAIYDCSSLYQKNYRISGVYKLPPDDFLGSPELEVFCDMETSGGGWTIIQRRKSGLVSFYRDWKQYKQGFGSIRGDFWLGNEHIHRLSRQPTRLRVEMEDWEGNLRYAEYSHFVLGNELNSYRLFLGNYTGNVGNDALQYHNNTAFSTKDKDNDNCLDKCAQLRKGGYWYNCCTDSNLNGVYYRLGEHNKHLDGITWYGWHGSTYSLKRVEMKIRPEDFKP
The experiment is described as follows: BLI Octet HTX; IgG on AHC sensor; Pext-01 at 100 nM. The procedure: Experiments were also conducted to determine the reactivity and dissociation constants (KD) of anti-ANGPTL7 antibodies with the human ANGPTL7 multimer protein. Binding experiments were performed on Octet HTX (ForteBio) in 1×PBS, pH 7.4, 0.1 mg/ml BSA, 0.05% Sodium Azide, and 0.02% Tween 20. Antibodies at a concentration of 50 nM were loaded on pre-hydrated AHC biosensors for 5 mi. The loaded sensors were dipped into Pext-01 (huANGTPL7-FLAG) at a concentration of 100 nM for 5 min of association, followed by 10 min of dissociation. […] Responses (nm) at the end of association were also determined (Table 7).

Experiment [5] addresses T2, muANGPTL7-his (R&D Systems). The experiment is described as follows: BLI Octet HTX; IgG on AHC sensor; muANGPTL7-his at 200 nM. An outline of the steps:
as §2

B1: ATX-P-449 (antibody, human IgG1, kappa, N297A, V domains shown)
VH: QVQLVESGGGVVQPGRSLRLSCAASGFAFSSYGMHWVRQAPGKGLEWVAVISYYGSNKYYADSVKGRFTISRDNSKNTLYLQMNSLRAEDTAVYHCARGITMDVWGKGTTVTVSS
VL: EIVLTQSPATLSLSPGERATLSCRASQSVSSYLAWYQQKPGQAPRLLIYDASNRATGIPARFSGSGSGTDFTLTISSLEPEDFAVYYCQQRSNWPLTFGGGTKVEIKR
notes: Full chains (VH + hIgG1-Agly-Fc)
Turning to B1, in the experiment with P62 (huANGPTL7-his) [1], the binding result is listed as “binds”. Also, in experiment [2], the Kd – broadly, the constant that tells how readily two partners part at equilibrium – came to 0.857 nM and the Response stood at 0.75 nm.

B2: ATX-P-443 (antibody, human IgG1, kappa, N297A, V domains shown)
VH: QVQLVQSGAEVKKPGASVKVSCKASGYTFTSYGISWVRQAPGQGLEWMGWIIAYNGNTNYAQKLQGRITMTTNTSTNTAYMELRSLRSDDTAVYYCGRDTGFSFDYWGQGTLVTVSS
VL: not shown
notes: as for B1
Regarding B2, the binding result with P66 (rabbit ANGPTL7-his) was “no binding (tested: 200 nM)”; with P62 (huANGPTL7-his) [3], “no binding (tested: 250 nM)”; in experiment [4], “no binding (tested: 100 nM)”; in experiment [5], “no binding (tested: 200 nM)”.

B3: ATX-P-428 (antibody, human IgG1, kappa, N297A, V domains shown)
VH: QVQLVQSGAEVKKPGASVKVSCKASGYTFSSYGISWVRQAPGQGLEWMGWISAYNGNTNYAQNLRGRVAMTTDTSTTTAYMELRSLRSDDTAVYYCARVSLVWFGELPRGFDYWGQGTLVTVSS
VL: not shown
notes: as for B1
As for B3, the binding result in the experiment with P66 (rabbit ANGPTL7-his) is “no binding (tested: 200 nM)”; with P62 (huANGPTL7-his) [3], “no binding (tested: 250 nM)”; in experiment [4], “no binding (tested: 100 nM)”; in experiment [5] it was “no binding (tested: 200 nM)”. In experiment [2], the Response was found to be 0.04 nm.

(Values after patent US20250296996A1 (BROADWING BIO, published 2025).)
